System: MS2 coat protein
Experiment: apparent KD of MS2 coat protein; designed switch direction (-1 OFF switch, 1 ON switch): -1; higher = weaker reporter binding
Procedure, shortened: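 Designed RNA switches with common flanks were made on Illumina chips by stalled E. coli RNA polymerase. Titration with SNAP-549-labelled MS2 coat protein doubled from 0.7 or 1.5 nM up to 3 µM. Apparent KD is each design's median over clusters after curve-fitting normalised fluorescence.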

[1] = Eterna round: R95, input ligand: FMN 200 uM
[2] = Eterna round: R95, input ligand: microRNA oligo, concentration not stated
[3] = Eterna round: R95, input ligand: none
[4] = input ligand: microRNA oligo, concentration not stated

AGUACUAACACGAGAGUGUUAGUACAAUAAGCUUGUGAAACAUGAGGAUCACCCAUGUCCUCAUAAGCUCGUCUUAU [salish99_TOv2_r3_029] (puzzle: Sensor v3, turn-off variant 2)
apparent KD of MS2 coat protein [1]: 0.0181 µM
apparent KD of MS2 coat protein [2]: 0.949 µM
apparent KD of MS2 coat protein [3]: 0.0172 µM

AGUACUAACACGCAUGUGUUAGUACAAUAAGCUUGUGAAACAUGAGGAUCACCCAUGUCCUCAUAAGCUCGUCUUAU [salish99_TOv2_r3_068] (Eterna round: R96, puzzle: Sensor v3, turn-off variant 2)
apparent KD of MS2 coat protein (input ligand: FMN 200 uM): 0.0148 µM
apparent KD of MS2 coat protein [4]: 0.415 µM
apparent KD of MS2 coat protein (input ligand: none): 0.0172 µM

AGUACUAACACGCAUGUGUUAGUACAAUAAGCUUGUGAAACAUGAGGAUCACCCAUGUCCUCAUAAGCUCGUCUUAU [salish99_TOv2_r3_068] (puzzle: Sensor v3, turn-off variant 2)
apparent KD of MS2 coat protein [1]: 0.0176 µM
apparent KD of MS2 coat protein [2]: 0.411 µM
apparent KD of MS2 coat protein [3]: 0.0161 µM

AGUACUAACACGUCAGUGUUAGUACAAUAAGCUUGUGAAACAUGAGGAUCACCCAUGUCCUCAUAAGCUCGUCUUAU [salish99_TOv2_r3_062] (puzzle: Sensor v3, turn-off variant 2)
apparent KD of MS2 coat protein [1]: 0.0173 µM
apparent KD of MS2 coat protein [2]: 0.602 µM
apparent KD of MS2 coat protein [3]: 0.0161 µM

AGUACUAUCACGAAAGUGAUAGUACAAAAUAGCAAGUGAACAUGAGGAUCACCCAUGUCCUCAUUUGCUCGUCUUAU [Sensor 3 - 19] (puzzle: Sensor v3, turn-off variant 2)
apparent KD of MS2 coat protein [1]: 0.0151 µM
apparent KD of MS2 coat protein [2]: 0.426 µM
apparent KD of MS2 coat protein [3]: 0.0142 µM

AGUACUGACACGUUGGUGUUAGUACAAUAAGCUUGUGACACAUGAGGAUCACCCAUGUCCUCAUAAGCUCGUCUUAU [salish99_TOv2_r2_094] (Eterna round: R96, puzzle: Sensor v3, turn-off variant 2)
apparent KD of MS2 coat protein (input ligand: FMN 200 uM): 0.0229 µM
apparent KD of MS2 coat protein [4]: 0.468 µM
apparent KD of MS2 coat protein (input ligand: none): 0.0254 µM

AGUACUGACACGUUGGUGUUAGUACAAUAAGCUUGUGACACAUGAGGAUCACCCAUGUCCUCAUAAGCUCGUCUUAU [salish99_TOv2_r2_094] (puzzle: Sensor v3, turn-off variant 2)
apparent KD of MS2 coat protein [1]: 0.022 µM
apparent KD of MS2 coat protein [2]: 1.08 µM
apparent KD of MS2 coat protein [3]: 0.0207 µM

AGUAGAUCUACGCUUGCGUGGAUCUGCAAUGCAAGUGUUACAUGAGGAUCACCCAUGUCCUCAUUUGCUCGUCUUAG [JL turnoff v2 99.05] (puzzle: Sensor v3, turn-off variant 2)
apparent KD of MS2 coat protein [1]: 0.0414 µM
apparent KD of MS2 coat protein [2]: 0.108 µM
apparent KD of MS2 coat protein [3]: 0.0454 µM

AGUAUGCGAGGAUAUACAUGAGGAUCACCCAUGUGAGAGAUAAAAGUGAGAAAGACAAGUAGAAGGCGCGUACA [JL Lego Mod 23] (Eterna round: R96, puzzle: Exclusion 3)
apparent KD of MS2 coat protein (input ligand: FMN 200 uM): 0.413 µM
apparent KD of MS2 coat protein [4]: 0.0419 µM
apparent KD of MS2 coat protein (input ligand: none): 0.0811 µM

AGUCAGACGGUAGGAUAUCCAUAUCGAGUGACCCUUUCAUAACAUGAGGAUCACCCAUGUCGGUGGGAGAAGGGCCGUACGGCG [JL ViennaUCT Atra mod 5] (Eterna round: R96, puzzle: Exclusion NG 2)
apparent KD of MS2 coat protein (input ligand: FMN 200 uM): 0.226 µM
apparent KD of MS2 coat protein [4]: 0.0933 µM
apparent KD of MS2 coat protein (input ligand: none): 0.129 µM

AGUCAGGCGGUAGGAUAUCCAAACCGAGUGACCCUCUCAUAACAUGAGGAUCACCCAUGUCGGUGGGAGAAGGGCCGUACGGCG [Atra] (Eterna round: R96, puzzle: Exclusion NG 2)
apparent KD of MS2 coat protein (input ligand: FMN 200 uM): 0.206 µM
apparent KD of MS2 coat protein [4]: 0.09 µM
apparent KD of MS2 coat protein (input ligand: none): 0.117 µM

AGUCAGUCAGGAUAUCAAAUCCGUGGACCUUACGAUGCGGCUGAGAAGGGACAUGAGGAUCACCCAUGUUGGGU [Eternabot (L2) Solution 27] (Eterna round: R97, puzzle: Exclusion 4)
apparent KD of MS2 coat protein (input ligand: FMN 200 uM): 0.0608 µM
apparent KD of MS2 coat protein (input ligand: none): 0.0665 µM

AGUCCUGCGGUGAGGAUAUAUUUGUAGCCAUUCAGGUAGAAGGCACUUGAGGAUCACCCAAGUAAAGAACCAAC [Releat] (Eterna round: R97, puzzle: Brourd's mod of Exclusion 4)
apparent KD of MS2 coat protein (input ligand: FMN 200 uM): 0.039 µM
apparent KD of MS2 coat protein (input ligand: none): 0.028 µM

AGUCGGCGAGGAUAUACAUGAGGAUCACCCAUGUGGAAUCCUAGACCUGUAGGUCCAUGUAGAAGGCGCUGACA [Exclusion 3 - Was a mod at one point v.2] (puzzle: Exclusion 3)
apparent KD of MS2 coat protein [1]: 0.0322 µM
apparent KD of MS2 coat protein [2]: 0.212 µM
apparent KD of MS2 coat protein [3]: 0.192 µM

AGUCGUAGACAGGAUAUGCGGCUAAUAAAUAAUGCAGAAGGGUCUACUUGAGGAUCACCCAAGUGGGCGGUCUG [jl-ex6-4.23 ViennaUCT mod] (Eterna round: R97, puzzle: Exclusion 6)
apparent KD of MS2 coat protein (input ligand: FMN 200 uM): 0.0703 µM
apparent KD of MS2 coat protein (input ligand: none): 0.0173 µM

AGUGACUUAGGAUAUUGGCAUGAAGACAUGAGGAUCACCCAUGUCCUCGUAGUCAUUCGCCGAGAAGGGAGAGAUU [Eternabot (L2) Solution 50] (Eterna round: R97, puzzle: Exclusion 5)
apparent KD of MS2 coat protein (input ligand: FMN 200 uM): 0.126 µM
apparent KD of MS2 coat protein (input ligand: none): 0.0844 µM

AGUGGGCUAGGAUAUCGAUGAACUCACAUGAGGAUCACCCAUGUGUCUUCGGUGGGCUCACGAGAAGGAGUAAGUU [Teanislaa] (puzzle: Exclusion 5)
apparent KD of MS2 coat protein [2]: 0.0157 µM

AGUGGGUCAGGAUAUUCUAUUAAUUACAUGAGGAUCACCCAUGUGAAUGGACAAGGGUGUGAAGAAGGGACUUGCG [Omei Ex5 A17d] (Eterna round: R97, puzzle: Exclusion 5)
apparent KD of MS2 coat protein (input ligand: FMN 200 uM): 0.324 µM
apparent KD of MS2 coat protein (input ligand: none): 0.546 µM

AGUGUGAGGCAGGAUAUGCUAUAUGUACGUAAUGCAGAAGGGUCUACAUGAGGAUCACCCAUGUGUGCGGUUGA [Ex6 #8] (Eterna round: R97, puzzle: Exclusion 6)
apparent KD of MS2 coat protein (input ligand: FMN 200 uM): 0.309 µM
apparent KD of MS2 coat protein (input ligand: none): 0.289 µM

AGUGUGUCAGGAUAUUCUAUUAAUUACAUGAGGAUCACCCAUGUGAAUGGACAAGGGUGUGAAGAAGGGACGUGCG [Omei Ex5 A17e] (Eterna round: R97, puzzle: Exclusion 5)
apparent KD of MS2 coat protein (input ligand: FMN 200 uM): 0.211 µM
apparent KD of MS2 coat protein (input ligand: none): 0.381 µM

AGUGUGUGGCAGGAUAUUCUAAUCGUGAGUCGGGAAGAAGGGUCUACAUGAGGAUCACCCAUGUGAGCGGUUGA [Ex6 #45] (Eterna round: R97, puzzle: Exclusion 6)
apparent KD of MS2 coat protein (input ligand: FMN 200 uM): 0.219 µM
apparent KD of MS2 coat protein (input ligand: none): 0.245 µM

AGUUCGCAGAGAGGAUAUAUAGGGUUACGGCCUAUAGAAGGUUCACGUUAGCCGCAACAUGAGGAUCACCCAUGUGCUCCGCGA [Eternabot solution 35] (Eterna round: R96, puzzle: Exclusion NG 1)
apparent KD of MS2 coat protein (input ligand: FMN 200 uM): 0.0275 µM
apparent KD of MS2 coat protein [4]: 0.0209 µM
apparent KD of MS2 coat protein (input ligand: none): 0.0296 µM

AGUUGGCGAGGAUAUACAUGAGGAUCACCCAUGUGAGAGAAAAAAGUGAGGAAGAAAAGUAGAAGGCGCUGACC [salish99_ex3_r3_041] (puzzle: Exclusion 3)
apparent KD of MS2 coat protein [1]: 0.245 µM
apparent KD of MS2 coat protein [2]: 0.0498 µM
apparent KD of MS2 coat protein [3]: 0.0818 µM

AGUUGGCGAGGAUAUACAUGAGGAUCACCCAUGUGAGAGAUACUAGUGAGGUCGAUUAGUAGAAGGCGCUGACG [Mat - Exclusion 3 - Mod of JL D76] (puzzle: Exclusion 3)
apparent KD of MS2 coat protein [1]: 1.17 µM
apparent KD of MS2 coat protein [2]: 0.0253 µM
apparent KD of MS2 coat protein [3]: 0.0493 µM
